Marks after values point to notes of the source that are not given here.
Tests used:
[1] = target: T1, GalR1 (Homo sapiens, UniProt P47211); test: Ala scanning of Gal2-13 peptides, activity at GalR1; assay type: cell-based; settings: peptides vs Gal2-13, FIG. 5
T1 sequence (P47211 1-349): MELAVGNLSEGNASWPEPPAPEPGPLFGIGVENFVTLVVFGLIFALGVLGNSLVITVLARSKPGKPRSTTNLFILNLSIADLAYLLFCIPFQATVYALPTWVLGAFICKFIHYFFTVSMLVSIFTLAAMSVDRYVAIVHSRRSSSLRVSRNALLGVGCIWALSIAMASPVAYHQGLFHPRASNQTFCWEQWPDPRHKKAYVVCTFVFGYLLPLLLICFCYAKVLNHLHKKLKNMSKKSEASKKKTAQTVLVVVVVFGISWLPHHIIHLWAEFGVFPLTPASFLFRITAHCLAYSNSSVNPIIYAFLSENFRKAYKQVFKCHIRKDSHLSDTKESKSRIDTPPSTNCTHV
Excerpt: Replacement of residues 2, 3, 5, 6, 9, 10, 11, 12 (corresponding to W, T, L, S, Y, L, L, G) led to a significant decrease in activity at GalR2 (FIG. 5). Replacement of residues 4, 8, 13 (corresponding to N, G, P) caused no decrease in activity. […] Of note, none of the substitutions increased GalR2 or GalR1 agonistic activity.

[2] = target: T2, GALR2 (Homo sapiens, UniProt O43603); test: Radioligand binding, [125I]galanin displacement on CHO GalR2 membranes; set-up: expressed in transfected cells; host or cells: CHO (Flp-In, pcDNA5/FRT); settings: recombinant GalR2 membranes, FIG. 3
T2 sequence (O43603 1-387): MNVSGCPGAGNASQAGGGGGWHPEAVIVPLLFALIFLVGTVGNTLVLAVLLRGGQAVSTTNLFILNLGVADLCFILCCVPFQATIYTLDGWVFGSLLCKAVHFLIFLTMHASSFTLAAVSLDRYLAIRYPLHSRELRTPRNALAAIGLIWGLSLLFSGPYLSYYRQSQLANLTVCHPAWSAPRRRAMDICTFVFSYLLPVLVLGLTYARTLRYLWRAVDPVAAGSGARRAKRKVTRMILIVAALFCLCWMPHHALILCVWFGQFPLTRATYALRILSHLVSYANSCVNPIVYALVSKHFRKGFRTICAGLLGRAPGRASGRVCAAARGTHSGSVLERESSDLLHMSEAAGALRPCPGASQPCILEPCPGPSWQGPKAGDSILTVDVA
Procedure: Cell membrane homogenates (4 μg protein—from CHO cells expressing the GalR2 receptor) were incubated for 120 minutes at 22° C. with 0.05 nM [^125I] galanin in the absence or presence of test compound in a buffer containing 25 mM Tris-HCl (pH 7.4, 10 mM MgCl2 and 0.5% BSA. Non-specific binding was determined in the presence of 1 μM porcine galanin. Following incubation, samples were filtered rapidly under vacuum through glass fiber filters (GF/B, Packard) pre-soaked with 0.3% PEI and rinsed several times with ice cold 50 mM Tris-HCl using a 96 sample cell harvester (Unifilter, Packard). The filters are dried then counted for radioactivity in a scintillation counter (Topcount, Packard) using a scintillation cocktail (Microscint 0), Packard). The results are expressed as a percent inhibition of the control radioligand specific binding. The standard reference compound is porcine galanin which is tested in each experiment at several concentrations to obtain a competition curve from which its IC50 is generated.
Briefly, cell overexpressing recombinant GalR2 were used to for crude membrane preparations. Competition style binding assays were then used to monitor displacement of [125I]-Galanin using a range of concentrations of Gal-FC fusion. After a period of incubation data were expressed relative the maximum specific Galanin bound.

[3] = target: T3, rat GalR2 (Rattus norvegicus, UniProt O08726); test: Calcium assay at orthologue receptor; assay type: cell-based; settings: Table 8; Calcium assays; mean +/− standard deviation
T3 sequence (O08726 1-372): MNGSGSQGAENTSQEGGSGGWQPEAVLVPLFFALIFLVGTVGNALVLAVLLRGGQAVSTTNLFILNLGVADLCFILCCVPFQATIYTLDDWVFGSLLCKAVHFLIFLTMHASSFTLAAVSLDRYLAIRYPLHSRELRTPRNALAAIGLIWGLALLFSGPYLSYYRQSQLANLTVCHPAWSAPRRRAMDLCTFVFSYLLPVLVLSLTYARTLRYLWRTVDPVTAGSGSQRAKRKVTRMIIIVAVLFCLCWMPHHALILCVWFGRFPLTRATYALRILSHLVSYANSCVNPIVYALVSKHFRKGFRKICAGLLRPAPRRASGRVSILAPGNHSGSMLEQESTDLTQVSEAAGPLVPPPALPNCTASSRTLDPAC
Excerpt: These species were chosen as they represent potential downstream in vivo models to be used. […] Calcium imaging was used to define receptor activity.

[4] = target: T2, GALR2; test: Calcium assay, CHO GalR2 cells (FLIPR); settings: mean +/− standard deviation
Procedure: CHO GalR2 cells were plated at 10,000 cells per well in black clear bottom plates (corning, USA) and incubated overnight at 37° C. with 5% CO2. […] Ligands were prepared at a 5× concentration and added to cells using the FLIPR (Molecular Devices, USA). Baseline was typically 20 seconds before ligand addition. […] For analysis, fluorescence was normalised to pre-addition baseline and peak fluorescence used for all quantification.
In brief, a panel of functional cell-based microtiter-plate assays were developed using recombinant GalR1 and GalR2 receptors stably expressed in CHO cells. […] Nominally this equated to 10 serial (~3fold) dilutions with highest concentrations of 10-1 μM as appropriate.
In addition to generating both potency and efficacy estimates, the latter being expressed relative to native galanin, both G-protein and non-G-Protein signalling pathways were measured.

[5] = target: T2, GALR2; test: β-arrestin recruitment, PathHunter CHO-K1 GALR2 cells; assay type: cell-based; settings: Table 2; mean +/− standard deviation, n ≥ 3
Procedure: Ligands were prepared at half log dilutions using cell plating reagent 2. 5 μl of each ligand was added to cells and plates incubated at 37° C. for 90 minutes. DiscoverX PathHunter detection kit (DiscoverX, USA) was added to cells as described my manufacturer's guidelines and plates incubated for 60 minutes at room temperature in the dark. Chemiluminescent signal was measured using the PHERAstar FS (BMG, Germany).

[6] = target: cynomolgus GalR2; test: Calcium assay at orthologue receptor; assay type: cell-based, Macaca fascicularis; settings: Table 8; Calcium assays; mean +/− standard deviation
Excerpt: (§1) These species were chosen as they represent potential downstream in vivo models to be used. Within native galanin amino acid residues 1-15 are conserved across species, we would therefore expect the Gal FC fusions comprising amino acids 2 to 13 to retain GalR2 activity in these species. Calcium imaging was used to define receptor activity.

[7] = target: T4, GALR3 (Homo sapiens, UniProt O60755); test: Luciferase reporter gene assay (SRE), HEK293 Gqi cells; assay type: cell-based
T4 construct: expressed in transfected cells; host or cells: genetically modified HEK293 Gqi cells, transient
T4 sequence (O60755 1-368): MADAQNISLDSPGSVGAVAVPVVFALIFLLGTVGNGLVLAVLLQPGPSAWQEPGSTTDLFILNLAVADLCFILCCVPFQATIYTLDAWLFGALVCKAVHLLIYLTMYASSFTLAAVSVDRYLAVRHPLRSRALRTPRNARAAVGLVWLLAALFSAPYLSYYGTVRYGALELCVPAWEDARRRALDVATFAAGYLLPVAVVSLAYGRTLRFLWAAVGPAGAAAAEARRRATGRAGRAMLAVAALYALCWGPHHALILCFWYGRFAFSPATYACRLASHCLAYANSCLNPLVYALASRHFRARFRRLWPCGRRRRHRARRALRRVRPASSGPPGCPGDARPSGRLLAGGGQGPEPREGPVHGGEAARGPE
Procedure: GalR3 activity was measured, alongside GalR1 and GalR2, using a luciferase reporter assay. A reporter plasmid and a receptor plasmid, were transiently transfected into the target cell line. The reporter plasmid contains a serum response element (SRE) or a nuclear factor of activated T-cells response element (NFAT-RE) which is coupled to a luciferase transcript and induces expression of the luciferase upon a specific G-protein (Gai uses SRE; Gaq uses NFAT-RE) activation. The target receptor is constantly expressed after cell transfection. For GALR1 and GALR3 screening, genetically modified HEK293 Gqi cells were transiently transfected with the SRE reporter and the receptor (GALR1 and GALR3) plasmids. For GALR2 screening, HEK293 cells were transiently transfected with the NFAT-RE reporter and the receptor (GALR2) plasmid. […] The luciferase activity was analyzed with the Bright-Glo Luciferase Assay (Promega) in an EnSpire plate reader.
Therefore, to measure activity at the GalR3 receptor a reporter gene assay was used. In this system MAP/ERK signalling is used to measure receptor activity. Activation of Gqi coupled receptors leads to downstream activation of ERK1/2. The activated ERK translocates to the nucleus where it phosphorylates and activates transcription factors, which lead to the binding of Serum response element (SRE). In this assay SRE activation induces expression of a luciferase reporter gene. […] To ensure this effect was not an artifact of the reporter gene assay, GalR1 and GalR2 reporter assays (using SRE and NFAT-RE respectively) were also run.

[8] = target: T5, mouse GalR2 (Mus musculus, UniProt O88854); test: Calcium assay at orthologue receptor; assay type: cell-based; settings: Table 8; Calcium assays; mean +/− standard deviation
T5 sequence (O88854 1-371): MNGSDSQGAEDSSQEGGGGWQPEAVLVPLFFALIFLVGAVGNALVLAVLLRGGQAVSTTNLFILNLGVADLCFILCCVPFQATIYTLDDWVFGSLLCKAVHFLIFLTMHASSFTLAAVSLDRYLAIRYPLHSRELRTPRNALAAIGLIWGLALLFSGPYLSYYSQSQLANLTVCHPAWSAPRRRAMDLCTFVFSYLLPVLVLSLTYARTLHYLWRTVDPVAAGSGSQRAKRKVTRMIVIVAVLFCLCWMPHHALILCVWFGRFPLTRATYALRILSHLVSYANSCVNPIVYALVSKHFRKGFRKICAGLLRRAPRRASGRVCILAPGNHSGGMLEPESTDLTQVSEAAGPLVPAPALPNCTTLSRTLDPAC
Excerpt: as §1

Row | Substance | effect of Ala substitution on GalR1 activity [1] | pIC50, displacement of [125I]-Galanin binding [2] | Rat GalR2 activity [3] | GalR2 Calcium, mean pEC50 ([4]; Table 2, n ≥ 3) | GalR2 activity (calcium assay), warhead length ([4]; Table 6, highest concentration tested 10 μM) | GalR2 Beta Arrestin, mean pEC50 [5] | Cynomolgus GalR2 activity [6] | activity at GalR3 (in words) [7] | Mouse GalR2 activity [8]
1 | Gal2-13ala8: ala scanning peptide WTLNSAAYLLGP, SEQ ID NO: 43 | reduced GalR1 activity | – | – | – | – | – | – | – | –
2 | Gal2-12FC: galanin 2-12, AEAAAKEAAAKA linker, human IgG1 FC; SEQ ID NO: 25 | – | 7.24 | 6.6 +/− 0.4 | 6.3 +/− 0.3 | 6.6 +/− 0.0 | 7.6 +/− 0.2* | 7.7 +/− 0.4 | no measurable activity | 6.8 +/− 0.1

— US20260209301A1, “Galanin-2 Receptor Agonists” (LIFEARC, priority 2022, published 2026)
